Laboratory results as given in patent US20030186868A1 (Regeneron, published 2003).
Blank lines part the entries; values can stand above or below the binder they belong to.

Assays:
[1] = target: T1, VEGFR-2/NP-1 co-receptor complex (cells co-expressing hVEGFR-2 and hNP-1) (human, UniProt P35968 20-1356; O14786 22-923); test: 125I-VEGF165 affinity labeling of HUVEC, VEGFR-2 immunoprecipitation, 100 µM peptide (FIG. 10B)
T1 construct: whole, on cells; All numbers printed for cells co-expressing both receptors are put on this molecule; also called R2 + NP1 Cells; VEGFR-2/NP-1 complex
T1 sequence (P35968 20-1356, chain 1 of 2): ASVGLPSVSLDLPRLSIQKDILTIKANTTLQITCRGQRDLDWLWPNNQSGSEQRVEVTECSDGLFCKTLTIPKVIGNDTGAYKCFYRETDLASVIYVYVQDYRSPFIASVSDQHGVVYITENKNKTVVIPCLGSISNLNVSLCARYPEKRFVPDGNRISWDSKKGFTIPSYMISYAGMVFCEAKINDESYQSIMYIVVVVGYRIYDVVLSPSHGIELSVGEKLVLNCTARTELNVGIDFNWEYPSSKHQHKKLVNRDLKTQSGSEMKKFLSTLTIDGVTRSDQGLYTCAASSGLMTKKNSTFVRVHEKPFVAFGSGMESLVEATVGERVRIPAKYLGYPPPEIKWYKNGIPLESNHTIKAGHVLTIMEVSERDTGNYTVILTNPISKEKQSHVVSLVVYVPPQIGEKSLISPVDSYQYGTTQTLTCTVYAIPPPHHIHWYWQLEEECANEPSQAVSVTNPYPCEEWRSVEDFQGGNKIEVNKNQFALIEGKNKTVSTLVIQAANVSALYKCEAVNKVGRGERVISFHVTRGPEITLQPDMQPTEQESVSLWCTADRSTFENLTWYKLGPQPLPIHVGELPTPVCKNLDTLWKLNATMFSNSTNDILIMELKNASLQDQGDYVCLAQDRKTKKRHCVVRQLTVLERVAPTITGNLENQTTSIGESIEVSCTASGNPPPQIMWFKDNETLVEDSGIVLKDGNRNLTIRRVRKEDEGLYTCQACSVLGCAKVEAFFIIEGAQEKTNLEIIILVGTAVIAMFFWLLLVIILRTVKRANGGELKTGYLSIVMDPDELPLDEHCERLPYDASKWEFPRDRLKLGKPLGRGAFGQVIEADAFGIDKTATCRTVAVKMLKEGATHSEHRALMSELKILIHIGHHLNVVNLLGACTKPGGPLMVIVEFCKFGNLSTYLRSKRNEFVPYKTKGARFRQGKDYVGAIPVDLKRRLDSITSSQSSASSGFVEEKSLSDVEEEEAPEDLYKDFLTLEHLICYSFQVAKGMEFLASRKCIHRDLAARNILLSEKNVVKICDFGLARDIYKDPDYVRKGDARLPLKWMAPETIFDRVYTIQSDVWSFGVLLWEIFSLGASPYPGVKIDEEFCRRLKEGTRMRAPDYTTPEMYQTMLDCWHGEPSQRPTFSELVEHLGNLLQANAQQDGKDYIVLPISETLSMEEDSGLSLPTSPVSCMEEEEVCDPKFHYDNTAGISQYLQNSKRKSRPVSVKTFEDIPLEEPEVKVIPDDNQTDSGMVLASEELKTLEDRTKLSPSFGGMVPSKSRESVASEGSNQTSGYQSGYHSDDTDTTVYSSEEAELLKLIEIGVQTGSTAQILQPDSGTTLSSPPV
T1 sequence (O14786 22-923, chain 2 of 2): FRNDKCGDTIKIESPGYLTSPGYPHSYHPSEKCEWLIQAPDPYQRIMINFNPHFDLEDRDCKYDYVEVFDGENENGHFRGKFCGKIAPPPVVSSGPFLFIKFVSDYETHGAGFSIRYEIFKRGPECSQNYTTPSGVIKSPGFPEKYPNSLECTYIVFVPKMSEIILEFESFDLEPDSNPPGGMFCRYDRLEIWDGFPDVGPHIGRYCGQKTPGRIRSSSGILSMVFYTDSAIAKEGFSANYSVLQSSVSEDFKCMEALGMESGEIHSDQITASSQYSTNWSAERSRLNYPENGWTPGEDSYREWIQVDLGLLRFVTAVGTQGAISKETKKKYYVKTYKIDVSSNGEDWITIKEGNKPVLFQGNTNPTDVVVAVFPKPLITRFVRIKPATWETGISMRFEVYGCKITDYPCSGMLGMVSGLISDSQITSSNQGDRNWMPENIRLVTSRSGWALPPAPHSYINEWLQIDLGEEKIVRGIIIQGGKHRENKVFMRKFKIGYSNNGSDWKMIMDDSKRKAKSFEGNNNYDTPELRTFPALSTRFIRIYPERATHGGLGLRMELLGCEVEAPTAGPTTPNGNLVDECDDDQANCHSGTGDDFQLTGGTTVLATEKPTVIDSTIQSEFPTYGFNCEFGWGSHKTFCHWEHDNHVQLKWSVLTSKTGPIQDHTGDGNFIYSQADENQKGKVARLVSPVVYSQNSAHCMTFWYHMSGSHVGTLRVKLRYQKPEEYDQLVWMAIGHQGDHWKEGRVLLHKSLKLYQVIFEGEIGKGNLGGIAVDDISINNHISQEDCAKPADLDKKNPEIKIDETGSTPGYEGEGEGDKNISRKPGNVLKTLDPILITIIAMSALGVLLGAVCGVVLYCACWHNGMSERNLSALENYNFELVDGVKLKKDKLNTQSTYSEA
Method: (§1) The crosslinker is removed with a single, ice cold, large volume wash (15 ml DPBS, Gibco). The cells are then lysed using RIP buffer (20 mM Tris HCl, pH 7.4; 100 mM NaCl; 1 mM EDTA; 10 mM NaI; 0.5% IGEPAL CA-630; 0.5% Na-deoxycholate; 1% BSA; all from Sigma). The lysate is then transferred to 1.5 ml conical tubes and centrifuged at 13,000×g to pellet the cellular debris. […] The precipitation tube is then incubated overnight at 4° C. on a nurator. The following morning the beads are washed three times in TNEN buffer (20 mM Tris-HCl pH 7.4; 100 mM NaCl; and 0.5% IGEPAL CA-630, all from Sigma), and heated for two minutes at 100° C. in 25 μl of 1×sample loading dye (5′-3′). The samples are then centrifuged to separate the beads from the sample buffer, and 20 μl of the sample buffer is loaded onto 6% SDS-PAGE gels (Novex). The gels are run at 35 mA for approximately 70 minutes, and then equilibrated in a drying buffer (10% acetic acid; 10% methanol, 80% H₂O) for 15 minutes and dried on a gel drier. The dried gels are then exposed to a phosphor screen overnight and developed using a Storm system (Molecular Dynamics).
(§2) Further amino terminal deletions were conducted.

[2] = target: T1, VEGFR-2/NP-1 co-receptor complex (cells …); test: 125I-VEGF165 affinity labeling of HUVEC, VEGFR-2 immunoprecipitation, 100 µM peptide (FIG. 10A)
Method: as §1, §2

[3] = target: T1, VEGFR-2/NP-1 co-receptor complex (cells …); test: 125I-VEGF165 competition on COS-1 cells and affinity labeling of HUVEC
[4] = target: T2, human vascular endothelial growth factor receptor-2 (hVEGFR-2) (human, UniProt P35968 20-1356); test: 125I-VEGF165 competition, whole COS-1 cells
T2 construct: whole, on cells; also called flk-1; FLK-1
T2 sequence (P35968 20-1356): as the sequence (P35968 20-1356, chain 1 of 2) above
Method: Cells are plated the day before experimentation at 200,000 cells per well in twelve well tissue culture plates (VWR) in 1 ml of growth medium specific for each cell type. On the day of experimentation, the cells were pre-equilibrated at 4° C. for 30 to 60 minutes in binding buffer (0.2% BSA, Sigma; 25 mM Hepes, Gibco; MEM, Gibco). […] The binding reaction is allowed to reach equilibrium for four hours at 4° C. with gentle agitation.
Unbound ligand is then removed by quickly washing three times with 5 ml ice cold BSA-free binding buffer (MEM, Gibco, 25 mM Hepes, Gibco). Cells are lysed by the addition of 250 μl of RIPS Buffer (previously described), and the lysed cells are transferred to 12×75 mm test tubes and counted using a gamma counter. Generation of competition curves and IC₅₀ values are performed using the Prism software package (Graphpad Software Inc., San Diego, Calif.).

- binding result [1]: binds
Binder: KGRGKRRREKQRPSDKPR [P6V8-3NCS-1C]

- binding result [2]: binds
Binder: RRREKQRPCDKPRR (also called PGV8-8N) [P6V8-8N]

- binding result [3]: binds
- binding result [4]: no binding
Binder: RREKQRPCDKPRR [P6V8-9N]
